PMC3319807 (Cancer Research, 2012)

Biological target: His-tagged full-length p53 (UniProt P04637 1-393)
Assay: co-IP

Chain of His-tagged full-length p53 (P04637 whole entry): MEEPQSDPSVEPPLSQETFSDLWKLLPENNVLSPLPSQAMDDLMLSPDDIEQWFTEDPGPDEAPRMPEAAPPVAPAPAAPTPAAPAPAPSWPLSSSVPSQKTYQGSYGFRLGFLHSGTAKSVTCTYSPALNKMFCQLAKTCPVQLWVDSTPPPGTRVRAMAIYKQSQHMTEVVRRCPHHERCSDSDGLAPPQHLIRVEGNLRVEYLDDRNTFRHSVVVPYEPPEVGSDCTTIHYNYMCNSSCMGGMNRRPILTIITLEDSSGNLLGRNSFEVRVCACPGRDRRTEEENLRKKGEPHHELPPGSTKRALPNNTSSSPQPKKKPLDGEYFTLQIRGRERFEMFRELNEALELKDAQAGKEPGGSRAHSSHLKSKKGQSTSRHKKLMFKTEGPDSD

binding result: binds
B1: His-tagged minimal-binding region of Dmp1 for p53 (M14: amino acids 87–224) (domain or fragment, UniProt Q8CE22 87-224, looked up)
chain: VTMTATTEVADDELSEGTVTQIQILQNDQLDEISPLGTEEVSAVSQAWFTTKEDKDSLTNKGHKWKQGMWSKEEIDILMNNIERYLKARGIKDATEIIFEMSKDERKDFYRTIAWGLNRPLFAVYRRVLRMYDDRNHV
